In US20220184181A1 (Stanford University, published 2022):

Molecular target: Met receptor on MDCK cells (UniProt Q75ZY9 25-1382, limits assumed)
Experiment: cell-based or functional assay

B1: recombinant Aras-4, soluble (ligand)
chain: YAEGQGKRRNTIHEFKKSAKTTLIKIDPALRIKTEKANTADQCANRCTRSKGLPFTCKAFVFDKARKRCLWFPFNSMSSGVKKEFGHEFDLYENKAYIRDCIIGRGRNYRGTVSITKSGIKCQPWSAMIPHEHSFLPSSYRGEDLRENYCRNPRGEEGGPWCYTSDPEVRYEVCDIPQCSEVE
inhibition of HGF-induced activation of Met: ~5 fold lower concentration
